The record followed here is paper doi:10.1101/2022.01.14.476392 (bioRxiv, 2022).

This data set concerns the molecule itself. The data set can be described thus: BLI. Background: Biolayer interferometry detects binding as a change in optical thickness at a sensor tip.

B1: diol-dehydratase PduCDE (complex, Salmonella enterica)
chain 1: MRSKRFEALAKRPVNQDGFVKEWIEEGFIAMESPNDPKPSIKIVNGAVTELDGKPVSEFDLIDHFIARYGINLNRAEEVMAMDSVKLANMLCDPNVKRSEIVPLTTAMTPAKIVEVVSHMNVVEMMMAMQKMRARRTPSQQAHVTNVKDNPVQIAADAAEGAWRGFDEQETTVAVARYAPFNAIALLVGSQVGRPGVLTQCSLEEATELKLGMLGHTCYAETISVYGTEPVFTDGDDTPWSKGFLASSYASRGLKMRFTSGSGSEVQMGYAEGKSMLYLEARCIYITKAAGVQGLQNGSVSCIGVPSAVPSGIRAVLAENLICSSLDLECASSNDQTFTHSDMRRTARLLMQFLPGTDFISSGYSAVPNYDNMFAGSNEDAEDFDDYNVIQRDLKVDGGLRPVREEDVIAIRNKAARALQAVFAGMGLPPITDEEVEAATYAHGSKDMPERNIVEDIKFAQEIINKNRNGLEVVKALAQGGFTDVAQDMLNIQKAKLTGDYLHTSAIIVGDGQVLSAVNDVNDYAGPATGYRLQGERWEEIKNIPGALDPNEID
chain 2: MEINEKLLRQIIEDVLRDMKGSDKPVSFNAPAASTAPQTAAPAGDGFLTEVGEARQGTQQDEVIIAVGPAFGLAQTVNIVGLPHKSILREVIAGIEEEGIKARVIRCFKSSDVAFVAVEGNRLSGSGISIGIQSKGTTVIHQQGLPPLSNLELFPQAPLLTLETYRQIGKNAARYAKRESPQPVPTLNDQMARPKYQAKSAILHIKETKYVVTGKNPQELRVAL
chain 3: MNTDAIESMVRDVLSRMNSLQGDAPAAAPAAGGTSRSAKVSDYPLANKHPEWVKTATNKTLDDFTLENVLSNKVTAQDMRITPETLRLQASIAKDAGRDRLAMNFERAAELTAVPDDRILEIYNALRPYRSTKEELLAIADDLENRYQAKICAAFVREAAGLYVERKKLKGDD
Broadly, the Kd is the concentration at which binding is half-saturated. As to B1, binding was put at a Kd of 3.5 µM.
